# Test results from patent publication US20080260729A1 (ZENYTH OPERATIONS, published 2008).
# T1: human VEGF-B10-108 (human, UniProt P49765 31-129)
# T1 construct: also called VB108
# T1 sequence: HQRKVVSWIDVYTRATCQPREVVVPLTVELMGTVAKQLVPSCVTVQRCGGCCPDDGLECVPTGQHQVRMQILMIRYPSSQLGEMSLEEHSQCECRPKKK
# T2: 6×His.mVEGF-B10-108 (murine, UniProt P49766 31-129)
# T2 construct: not shown: additional 16 N-terminal amino acids with 6xHis tag and Genenase I cleavage site
# T2 sequence: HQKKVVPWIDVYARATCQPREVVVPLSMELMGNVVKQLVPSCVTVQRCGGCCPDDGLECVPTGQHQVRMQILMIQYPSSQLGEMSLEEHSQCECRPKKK
# Legend:
# human VEGF-B10-108 = molecular target: T1, human VEGF-B10-108; experiment: SPR (BIAcore 2000), VEGF-B10-108 amine-coupled on chip, mAb injected 125-0.98 nM
# Protocol: A Biosensor-based approach was used for kinetic analysis of mAb binding to target VEGF-B using a BIAcore™ 2000 surface plasmon resonance instrument (Biacore AB, Uppsala, Sweden). A biosensor chip was activated for covalent coupling of VEGF-B using N-ethyl-N′-(3-dimethylaminopropyl)-carbodiimide hydrochloride (EDC) and N-hydroxysuccinimide (NHS) according to the supplier's (Biacore AB, Uppsala, Sweden) instructions. A solution of 5 μg/ml VEGF-B₁₀₋₁₀₈ in 20 mM sodium acetate, pH 4.8 was prepared and an aliquot (35 μl) was injected at a flow rate of 2 μl/min to achieve approximately 500-600 response units (RU) of coupled protein. Finally, 1 M ethanolamine was injected as a blocking agent.
# For kinetics measurements, two-fold serial dilutions of test antibody starting at 125n M to 0.98 nM were injected in BIAcore™ buffer (20 mM HEPES, pH 7.8, 0.15 M NaCl, 3.4 mM EDTA, 0.005% Tween-20) with 1 mg/ml bovine serum albumin (BSA) at 25° C. at a flow rate of 15 μl/min. Simultaneous analysis of association (kₐ) and dissociation (kd) rate constants using BIAevaluation™ V3.02 software (Biacore AB, Uppsala, Sweden) was used to determine the equilibrium binding constant (KD).
# 6×His.mVEGF-B10-108 [1] = molecular target: T2, 6×His.mVEGF-B10-108; experiment: ELISA on plate-bound antigen, HRP secondary, TMB
# Protocol: (§1) Monoclonal antibodies raised against hVEGF-B were tested for cross-reactivity with mVEGF-B using a standard ELISA format. mAbs were incubated with plate bound hVEGF-B₁₀₋₁₀₈ or 6×His.mVEGF-B₁₀₋₁₀₈ at a concentration of 1.25 μg/ml and bound mAb visualized using a HRP-conjugated secondary reagent and TMB substrate.
# 6×His.mVEGF-B10-108 [2] = molecular target: T2, 6×His.mVEGF-B10-108; experiment: ELISA on plate-bound 6×His.mVEGF-B10-108
# Protocol: as §1
# [3] = molecular target: human VEGF-B (Example 10, form not stated) (human) (UniProt P49765); experiment: SPR (BIAcore), immobilised human VEGF-B, Fab injected at several concentrations
# [4] = molecular target: human VEGF-B (Example 10, form not stated) (human) (UniProt P49765); experiment: BIAcore dissociation rate, ratio
# [5] = molecular target: human VEGF-B (Example 10, form not stated) (human) (UniProt P49765); experiment: competition ELISA, plate bound human VEGF-B, soluble VEGF-B titrated
# [6] = molecular target: human VEGF-B (Example 10, form not stated) (human) (UniProt P49765); experiment: SPR (BIAcore), immobilised human VEGF-B
Binder,Kd (human VEGF-B10-108) [nM],koff (human VEGF-B10-108) [s⁻¹],kon (human VEGF-B10-108) [M⁻¹ s⁻¹],Relative koff (koff CDR-Fab variant/koff murine-human chimera) [4],Relative VEGF-B binding affinity (IC50 CDR-Fab variant/IC50 murine-human chimera) [5],other results
"murine monoclonal antibody 4E12 (antibody, V domains shown, Whole murine mAb from hybridoma; also called mAb 4E12) VH: QVQPQQPGAELVKPGASVKMSCKASGDTFTNSWIGWVTQRPGQGLEWIGDIFPGSGHTNYNEKFKNRATLTVDTSSSTAYMLLSSLTSDDSAVYYCVIENYAWFAYWGQGTLVTVSA VL: DIVMTQSQKFMSSSVGDRVSVTCKASQNVNTNVAWYQQKQGQSPRPLIYSASSRCSGVPDRFTGSGFGTDFTLTISNVQSEDLAEYFCQQYHSFPLTFGAGAKLDLK",2.71,0.000132,48700,–,–,binding result (6×His.mVEGF-B10-108 [1]): no binding (tested: 1.25 µg/ml)
"2H10 murine Fab (Fab, V domains shown) VH: QVQLQQPGTELVKPGASVKLSCKASGYTFTGFWIHWVKQRPGQGLEWIGHINPGNGGTNYNEKFKRMATLTVDKSSSTAYMQLSSLTSEDSAVYYCARSYSNYVRAMDYWGQGTSVTVSS VL: EIQMTQTTSSLSASLGDRVTISCRASQDISNFLNWYQQKPDGTVKLLIYYTSTLHSGVPSRFSGSGSGTDYSLTISNLEQEDIATYFCQQGKTLPPTFGGGTKLEIK",–,–,–,–,–,Kd [3]: 0.115 nM
"mouse-human chimeric Fab (2H10) (Fab, V domains shown) VH: QVQLQQPGTELVKPGASVKLSCKASGYTFTGFWIHWVKQRPGQGLEWIGHINPGNGGTNYNEKFKRMATLTVDKSSSTAYMQLSSLTSEDSAVYYCARSYSNYVRAMDYWGQGTSVTVSS VL: EIQMTQTTSSLSASLGDRVTISCRASQDISNFLNWYQQKPDGTVKLLIYYTSTLHSGVPSRFSGSGSGTDYSLTISNLEQEDIATYFCQQGKTLPPTFGGGTKLEIK",–,–,–,1,1,–
"2H10 CDR-grafted human germline Fab (CDR-Fab) (Fab, V domains shown) VH: QVQLVQSGAEVKKPGASVKVSCKASGYTFTGFWIHWVRQAPGQGLEWMGHINPGNGGTNYNEKFKRRVTMTRDTSISTAYMELSRLRSDDTAVYYCARSYSNYVRAMDYWGQGTLVTVSS VL: DIQMTQSPSSLSASVGDRVTITCRASQDISNFLNWYQQKPGKAPKLLIYYTSTLHSGVPSRFSGSGSGTDFTLTISSLQPEDFATYYCQQGKTLPPTFGGGTKVEIK",–,–,–,3.7,2.25,Kd [3]: 0.66 nM
"CDR-Fab framework variant H73 (Fab, V domains shown) VH: QVQLVQSGAEVKKPGASVKVSCKASGYTFTGFWIHWVRQAPGQGLEWMGHINPGNGGTNYNEKFKRRVTMTRDKSISTAYMELSRLRSDDTAVYYCARSYSNYVRAMDYWGQGTLVTVSS VL: DIQMTQSPSSLSASVGDRVTITCRASQDISNFLNWYQQKPGKAPKLLIYYTSTLHSGVPSRFSGSGSGTDFTLTISSLQPEDFATYYCQQGKTLPPTFGGGTKVEIK",–,–,–,1.4,1.42,Kd [6]: 0.337 nM; fold of KD against the 2H10 murine Fab [6]: < 3 fold

# Further lines, with some results ahead:
Kd (human VEGF-B10-108) [nM],koff (human VEGF-B10-108) [s⁻¹],kon (human VEGF-B10-108) [M⁻¹ s⁻¹],Relative koff (koff CDR-Fab variant/koff murine-human chimera) [4],Relative VEGF-B binding affinity (IC50 CDR-Fab variant/IC50 murine-human chimera) [5],Binder,other results
2.82,0.000153,54500,–,–,"murine monoclonal antibody 1C6 (antibody, V domains shown, Whole murine mAb from hybridoma; also called mAb 1C6) VH: QVQLQQSGPELVKPGASVRISCKASGYTFTTFYIHWVKQRPGQGLEWIAWFYPGNVNTNYNEKFKDKATLTADKSSSAAYLQLNSLTSEDSAVYFCTRSPYYGYVFDFWGQGTTLTVSS VL: DIVMTQSHKFMSTSVGDRVSITCKASQDVGSAVAWYQQKPGQSPKLLIYWASTRHTGVPDRFTGSGSGTDFTFTISNVQSEDLADYFCQQYSSSLTFGAGATKLEL",binding result (6×His.mVEGF-B10-108 [2]): binds
0.18,6.77e-05,385000,–,–,"murine monoclonal antibody 2H10 (antibody, V domains shown, Whole murine mAb from hybridoma; also called mAb 2H10) VH: QVQLQQPGTELVKPGASVKLSCKASGYTFTGFWIHWVKQRPGQGLEWIGHINPGNGGTNYNEKFKRMATLTVDKSSSTAYMQLSSLTSEDSAVYYCARSYSNYVRAMDYWGQGTSVTVSS VL: EIQMTQTTSSLSASLGDRVTISCRASQDISNFLNWYQQKPDGTVKLLIYYTSTLHSGVPSRFSGSGSGTDYSLTISNLEQEDIATYFCQQGKTLPPTFGGGTKLEIK",binding result (6×His.mVEGF-B10-108 [2]): binds
